Assay results from patent publication US20120014945A1 (ACADEMIA SINICA, published 2012).

Assays:
[1] = molecular target: DENV-2 (16681) envelope (E) protein (dengue virus type 2 (DENV-2 16681)) (UniProt P29990); assay: cell-based or functional assay
[2] = molecular target: T1, DENV-4 (H241) envelope (E) protein (dengue virus type 4 (DENV-4 H241), UniProt Q58HT7 280-774); assay: ELISA on DENV-4-infected C6/36 cells
T1 construct: whole, on cells

[3] = molecular target: T2, DENV-3 (H87) envelope (E) protein (dengue virus type 3 (DENV-3 H87), UniProt P27915 281-773); assay: ELISA on DENV-3-infected C6/36 cells
T2 construct: whole, on cells

T1 sequence (Q58HT7 280-774): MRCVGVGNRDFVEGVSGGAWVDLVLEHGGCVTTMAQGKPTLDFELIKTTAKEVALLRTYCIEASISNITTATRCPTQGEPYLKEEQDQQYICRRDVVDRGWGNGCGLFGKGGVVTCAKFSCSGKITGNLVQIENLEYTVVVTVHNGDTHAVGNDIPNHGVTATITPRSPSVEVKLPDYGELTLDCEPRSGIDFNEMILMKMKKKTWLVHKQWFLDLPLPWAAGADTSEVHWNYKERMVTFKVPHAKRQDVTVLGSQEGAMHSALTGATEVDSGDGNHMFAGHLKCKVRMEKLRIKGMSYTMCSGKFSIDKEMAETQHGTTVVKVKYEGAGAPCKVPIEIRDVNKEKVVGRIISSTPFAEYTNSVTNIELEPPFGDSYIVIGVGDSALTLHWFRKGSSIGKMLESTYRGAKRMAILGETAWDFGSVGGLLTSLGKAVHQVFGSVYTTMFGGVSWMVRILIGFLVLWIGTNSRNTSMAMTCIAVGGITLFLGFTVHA

For 3H5 (antibody), the PRNT50 (µg/ml), D2 [1] was under 0.41 µg/mL and the concentration of complete inhibition of viral infection (PRNT) [1] was 11 µg/mL.

With 4G2 (antibody) the PRNT50 (µg/ml), D2 [1] was under 11 µg/mL.

normal mouse IgG (antibody) was tested, and the neutralizing activity (PRNT) [1] was over 100 µg/mL.

B1: DB25-2 (antibody, V domains shown)
VH: QVQLKESGPGLVQPSQSLSITCTVSGFSLTDYGVHWIRQSPGKGLEWLGVIWRGGITDYNAAFMSRLSITKDNSKSQVFFKMDSLQPDDSAIYYCAKNFGTHYYGSNYGNFDYWGQGTTLTVSS
VL: VVMTQTPKFLLVSAGDRVTITCKASQSVSNDVAWYQQKPGQSPKLLIYYVSNRYSGVPDRFTGSGYGTDFTFTINTVQAEDLAVYFCQQDYSSPYTFGGGTKLEIK
B1: no binding (tested: A490 < 0.2 (MAb at 1 µg/ml)) [2]; no binding (tested: A490 < 0.2 (MAb at 1 µg/ml)) [3].
